Results taken from the supplement of paper PMC5998384.

Key:
HeLa Kyoto [1] = assay: solubility change mitosis vs G1/S (difference of NP-40 vs SDS log2 ratios) (log2 ratio difference); higher = more soluble in mitosis
HeLa Kyoto [2] = assay: thermal stability score vs G1/S (z-score of summed log2 fold changes over temperatures); higher = more thermally stable than in G1/S
HeLa Kyoto [3] = assay: melting temperature (median over replicates), in situ; higher = more thermally stable
HeLa Kyoto [4] = assay: solubility in G1/S (NP-40 vs SDS abundance) (log2 ratio); higher = more soluble; conditions: cell cycle stage: G1/S
[5] = cell cycle stage: early G1 (4.5 h after nocodazole release)
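Throughout, for melting temperature (median over replicates), in situ: HeLa Kyoto cells synchronized by double thymidine or nocodazole block, proteins quantified by TMT10plex mass spectrometry, three independent biological replicates.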
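Throughout, for solubility change mitosis vs G1/S (difference of NP-40 vs SDS log2 ratios): synchronized HeLa Kyoto cells (double thymidine block for G1/S, nocodazole release for mitosis), protein amounts in NP-40 versus SDS lysates quantified by mass spectrometry, three biological replicates.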
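Throughout, for solubility in G1/S (NP-40 vs SDS abundance): HeLa Kyoto cells arrested at G1/S by double thymidine block, proteins quantified by TMT10plex mass spectrometry in mild NP-40 versus SDS extracts, three biological replicates.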
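Throughout, for thermal stability score vs G1/S (z-score of summed log2 fold changes over temperatures): synchronized HeLa Kyoto cells, proteins quantified by TMT10plex mass spectrometry, three biological replicates, mitosis taken 0.5 h after nocodazole release, G1/S directly after double thymidine block.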

| Sequence | solubility change mitosis (log2) (HeLa Kyoto [1]) | thermal stability score (HeLa Kyoto [2]; [5]) | thermal stability score (HeLa Kyoto [2]; cell cycle stage: mitosis) | melting temperature (HeLa Kyoto [3]; cell cycle stage: G1/S) [°C] | melting temperature (HeLa Kyoto [3]; cell cycle stage: mitosis) [°C] | solubility in G1/S (log2) (HeLa Kyoto [4]) |
| --- | --- | --- | --- | --- | --- | --- |
| MALASVLERPLPVNQRGFFGLGGRADLLDLGPGSLSDGLSLAAPGWGVPEEPGIEMLHGTTTLAFKFRHGVIVAADSRATAGAYIASQTVKKVIEINPYLLGTMAGGAADCSFWERLLARQCRIYELRNKERISVAAASKLLANMVYQYKGMGLSMGTMICGWDKRGPGLYYVDSEGNRISGATFSVGSGSVYAYGVMDRGYSYDLEVEQAYDLARRAIYQATYRDAYSGGAVNLYHVREDGWIRVSSDNVADLHEKYSGSTP [PSMB5] | -0.142 | -2.01 | -3.9 | 63.3 | 61.5 | -0.00915 |
| MRVRIGLTLLLCAVLLSLASASSDEEGSQDESLDSKTTLTSDESVKDHTTAGRVVAGQIFLDSEESELESSIQEEEDSLKSQEGESVTEDISFLESPNPENKDYEEPKKVRKPALTAIEGTAHGEPCHFPFLFLDKEYDECTSDGREDGRLWCATTYDYKADEKWGFCETEEEAAKRRQMQEAEMMYQTGMKILNGSNKKSQKREAYRYLQKAASMNHTKALERVSYALLFGDYLPQNIQAAREMFEKLTEEGSPKGQTALGFLYASGLGVNSSQAKALVYYTFGALGGNLIAHMVLGYRYWAGIGVLQSCESALTHYRLVANHVASDISLTGGSVVQRIRLPDEVENPGMNSGMLEEDLIQYYQFLAEKGDVQAQVGLGQLHLHGGRGVEQNHQRAFDYFNLAANAGNSHAMAFLGKMYSEGSDIVPQSNETALHYFKKAADMGNPVGQSGLGMAYLYGRGVQVNYDLALKYFQKAAEQGWVDGQLQLGSMYYNGIGVKRDYKQALKYFNLASQGGHILAFYNLAQMHASGTGVMRSCHTAVELFKNVCERGRWSERLMTAYNSYKDGDYNAAVIQYLLLAEQGYEVAQSNAAFILDQREASIVGENETYPRALLHWNRAASQGYTVARIKLGDYHFYGFGTDVDYETAFIHYRLASEQQHSAQAMFNLGYMHEKGLGIKQDIHLAKRFYDMAAEASPDAQVPVFLALCKLGVVYFLQYIRETNIRDMFTQLDMDQLLGPEWDLYLMTIIALLLGTVIAYRQRQHQDMPAPRPPGPRPAPPQQEGPPEQQPPQ [SEL1L] | -0.0462 | -0.563 | -0.64 | 53.9 | 52 | 0.228 |
| MSLLGDPLQALPPSAAPTGPLLAPPAGATLNRLREPLLRRLSELLDQAPEGRGWRRLAELAGSRGRLRLSCLDLEQCSLKVLEPEGSPSLCLLKLMGEKGCTVTELSDFLQAMEHTEVLQLLSPPGIKITVNPESKAVLAGQFVKLCCRATGHPFVQYQWFKMNKEIPNGNTSELIFNAVHVKDAGFYVCRVNNNFTFEFSQWSQLDVCDIPESFQRSVDGVSESKLQICVEPTSQKLMPGSTLVLQCVAVGSPIPHYQWFKNELPLTHETKKLYMVPYVDLEHQGTYWCHVYNDRDSQDSKKVEIIIGRTDEAVECTEDELNNLGHPDNKEQTTDQPLAKDKVALLIGNMNYREHPKLKAPLVDVYELTNLLRQLDFKVVSLLDLTEYEMRNAVDEFLLLLDKGVYGLLYYAGHGYENFGNSFMVPVDAPNPYRSENCLCVQNILKLMQEKETGLNVFLLDMCRKRNDYDDTIPILDALKVTANIVFGYATCQGAEAFEIQHSGLANGIFMKFLKDRLLEDKKITVLLDEVAEDMGKCHLTKGKQALEIRSSLSEKRALTDPIQGTEYSAESLVRNLQWAKAHELPESMCLKFDCGVQIQLGFAAEFSNVMIIYTSIVYKPPEIIMCDAYVTDFPLDLDIDPKDANKGTPEETGSYLVSKDLPKHCLYTRLSSLQKLKEHLVFTVCLSYQYSGLEDTVEDKQEVNVGKPLIAKLDMHRGLGRKTCFQTCLMSNGPYQSSAATSGGAGHYHSLQDPFHGVYHSHPGNPSNVTPADSCHCSRTPDAFISSFAHHASCHFSRSNVPVETTDEIPFSFSDRLRISEK [MALT1] | -0.158 | 0.111 | 0.543 | 49 | 49.4 | -0.00137 |
| MGRVQLFEISLSHGRVVYSPGEPLAGTVRVRLGAPLPFRAIRVTCIGSCGVSNKANDTAWVVEEGYFNSSLSLADKGSLPAGEHSFPFQFLLPATAPTSFEGPFGKIVHQVRAAIHTPRFSKDHKCSLVFYILSPLNLNSIPDIEQPNVASATKKFSYKLVKTGSVVLTASTDLRGYVVGQALQLHADVENQSGKDTSPVVASLLQKVSYKAKRWIHDVRTIAEVEGAGVKAWRRAQWHEQILVPALPQSALPGCSLIHIDYYLQVSLKAPEATVTLPVFIGNIAVNHAPVSPRPGLGLPPGAPPLVVPSAPPQEEAEAEAAAGGPHFLDPVFLSTKSHSQRQPLLATLSSVPGAPEPCPQDGSPASHPLHPPLCISTGATVPYFAEGSGGPVPTTSTLILPPEYSSWGYPYEAPPSYEQSCGGVEPSLTPES [ARRDC1] | -0.0855 | -1.09 | -1.63 | 53.2 | 52.1 | 0.131 |
| MPYLGSEDVVKELKKALCNPHIQADRLRYRNVIQRVIRYMTQGLDMSGVFMEMVKASATVDIVQKKLVYLYMCTYAPLKPDLALLAINTLCKDCSDPNPMVRGLALRSMCSLRMPGVQEYIQQPILNGLRDKASYVRRVAVLGCAKMHNLHGDSEVDGALVNELYSLLRDQDPIVVVNCLRSLEEILKQEGGVVINKPIAHHLLNRMSKLDQWGQAEVLNFLLRYQPRSEEELFDILNLLDSFLKSSSPGVVMGATKLFLILAKMFPHVQTDVLVRVKGPLLAACSSESRELCFVALCHVRQILHSLPGHFSSHYKKFFCSYSEPHYIKLQKVEVLCELVNDENVQQVLEELRGYCTDVSADFAQAAIFAIGGIARTYTDQCVQILTELLGLRQEHITTVVVQTFRDLVWLCPQCTEAVCQALPGCEENIQDSEGKQALIWLLGVHGERIPNAPYVLEDFVENVKSETFPAVKMELLTALLRLFLSRPAECQDMLGRLLYYCIEEEKDMAVRDRGLFYYRLLLVGIDEVKRILCSPKSDPTLGLLEDPAERPVNSWASDFNTLVPVYGKAHWATISKCQGAERCDPELPKTSSFAASGPLIPEENKERVQELPDSGALMLVPNRQLTADYFEKTWLSLKVAHQQVLPWRGEFHPDTLQMALQVVNIQTIAMSRAGSRPWKAYLSAQDDTGCLFLTELLLEPGNSEMQISVKQNEARTETLNSFISVLETVIGTIEEIKS [AP4B1] | -0.136 | -0.012 | 0.298 | 49.3 | 49.7 | -0.123 |
| MPLAQLKEPWPLMELVPLDPENGQTSGEEAGLQPSKDEGVLKEISITHHVKAGSEKADPSHFELLKVLGQGSFGKVFLVRKVTRPDSGHLYAMKVLKKATLKVRDRVRTKMERDILADVNHPFVVKLHYAFQTEGKLYLILDFLRGGDLFTRLSKEVMFTEEDVKFYLAELALGLDHLHSLGIIYRDLKPENILLDEEGHIKLTDFGLSKEAIDHEKKAYSFCGTVEYMAPEVVNRQGHSHSADWWSYGVLMFEMLTGSLPFQGKDRKETMTLILKAKLGMPQFLSTEAQSLLRALFKRNPANRLGSGPDGAEEIKRHVFYSTIDWNKLYRREIKPPFKPAVAQPDDTFYFDTEFTSRTPKDSPGIPPSAGAHQLFRGFSFVATGLMEDDGKPRAPQAPLHSVVQQLHGKNLVFSDGYVVKETIGVGSYSECKRCVHKATNMEYAVKVIDKSKRDPSEEIEILLRYGQHPNIITLKDVYDDGKHVYLVTELMRGGELLDKILRQKFFSEREASFVLHTIGKTVEYLHSQGVVHRDLKPSNILYVDESGNPECLRICDFGFAKQLRAENGLLMTPCYTANFVAPEVLKRQGYDEGCDIWSLGILLYTMLAGYTPFANGPSDTPEEILTRIGSGKFTLSGGNWNTVSETAKDLVSKMLHVDPHQRLTAKQVLQHPWVTQKDKLPQSQLSHQDLQLVKGAMAATYSALNSSKPTPQLKPIESSILAQRRVRKLPSTTL [RPS6KA1] | -0.118 | 0.39 | 1.42 | 49.6 | 50.2 | 0.0398 |
| MEEKLKKTKIIFVVGGPGSGKGTQCEKIVQKYGYTHLSTGDLLRSEVSSGSARGKKLSEIMEKGQLVPLETVLDMLRDAMVAKVNTSKGFLIDGYPREVQQGEEFERRIGQPTLLLYVDAGPETMTQRLLKRGETSGRVDDNEETIKKRLETYYKATEPVIAFYEKRGIVRKVNAEGSVDSVFSQVCTHLDALK [AK1] | -0.0547 | 1.73 | 1.88 | 50.4 | 51 | 0.524 |
| MSCINLPTVLPGSPSKTRGQIQVILGPMFSGKSTELMRRVRRFQIAQYKCLVIKYAKDTRYSSSFCTHDRNTMEALPACLLRDVAQEALGVAVIGIDEGQFFPDIVEFCEAMANAGKTVIVAALDGTFQRKPFGAILNLVPLAESVVKLTAVCMECFREAAYTKRLGTEKEVEVIGGADKYHSVCRLCYFKKASGQPAGPDNKENCPVPGKPGEAVAARKLFAPQQILQCSPAN [TK1] | -0.138 | -4.01 | -1.09 | 56.1 | 57.3 | 0.28 |
